Test results from patent publication US11649460B2, “DNA aptamers, method for inhibiting human galectin-1 and method of treating a mammal in need thereof” (priority 2020, dated 2023).

Experiments:
galectins = settings: in vitro; cited from earlier work
[1] = system: A-375 human malignant melanoma; assay: SRB cell proliferation (cytotoxicity) assay, A-375
Excerpt: (§1) The XLSTAT software was used to determine the IC50, TGI and LC50 values using the four-parameter logistic curve equation.

[2] = system: HCT 116 human colorectal carcinoma; assay: SRB cell proliferation (cytotoxicity) assay, HCT 116
Excerpt: as §1

[3] = target: T1, hGal1-induced hemagglutination of red blood cells (Homo sapiens, UniProt P09382); assay: Hemagglutination inhibition assay, native hGal1; format: cell-based; settings: native Gal1 5 μM
T1 construct: 42; made in house; host or cells: E. coli strain M-15
T1 sequence (P09382 2-135): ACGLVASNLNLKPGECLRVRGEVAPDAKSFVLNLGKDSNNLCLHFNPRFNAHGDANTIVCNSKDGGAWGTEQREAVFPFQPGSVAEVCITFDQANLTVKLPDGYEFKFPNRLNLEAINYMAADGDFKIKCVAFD
Description: Hemagglutination Inhibition Assay
Hemagglutination assay was adopted to assess the capacity of SEQ ID NO.: 4 in inhibiting the lectin cross-linking aggregation of red blood cells (RBC), as previously described. Briefly, using a 96-well microplates appropriate amounts of 5 μM hGal1 were blended with 50 μL of aptamer in an increasing concentrations manner (0-40 μM) in PBS 1× buffer (pH 7.4). Following, 50 μL of 3% purified type B+ RBC in PBS. After 2 h of room temperature incubation, the plate was photographed and the hemagglutination area was estimated by area calculator Sketchandcalc™ and the results were expressed as relative agglutination.

[4] = system: seven cell lines of solid human tumors; assay: SRB antiproliferative assay, panel of tumor lines; format: cell-based; settings: read-out: 50% growth inhibitory concentrations (IC50); all tumor cell lines assessed
Excerpt: as §1

[5] = system: OVCAR-3 human ovarian adenocarcinoma cell line; assay: SRB cell proliferation (cytotoxicity) assay, OVCAR-3
Excerpt: as §1

OVCAR-3 cell line = assay: Synergism test with cisplatin, OVCAR-3; settings: cisplatin 3 μM
Description: For the analysis of cell proliferation, the non-clonogenic method of sulforodamine B (SRB) was used, a protein dye that binds to the basic amino acid residues of cell proteins that were viable at the time of the fixation process. Therefore, the greater the amount of SRB bound per compartment, the less the antiproliferative activity of the item under study.

[6] = system: DU-145 human prostate carcinoma cell line; assay: SRB cell proliferation (cytotoxicity) assay, DU-145
Excerpt: as §1

[7] = target: T2, native human galectin-1 (hGal1) (Homo sapiens, UniProt P09382); assay: Thermofluor thermal shift assay (TSA), native galectin-1; format: binding; settings: 5 μM protein
T2 construct: 42; made in house; host or cells: E. coli strain M-15
T2 sequence (P09382 2-135): as above
Description: In an attempt to screen among the selected aptamers that better interact with hGal1, differential scanning fluorimetry (Termofluor) was used to characterize their binding to its target. Among all the selected aptamers, SEQ ID NO.: 4 seemed to have a more intense effect on hGal1 thermoshift and so was chosen for further analysis. The selected aptamer had its interaction evaluated with native and alkylated galectin-1. […] The respective thermal displacements were evaluated as a function of an increasing concentration of SEQ ID NO.: 4 (FIG. 1).
Thermofluor experiments were performed on an Mx3005 RT-PCR (Agilent Technologies) using the SYPRO® Orange dye (492/610 nm) (Invitrogen) as fluorescent probe. The purified (native and alkylated) protein samples were incubated for 30 min with increasing concentration of the molecules of interest, centrifuged, and submitted to the thermal denaturation assay, totalizing four distinct experiments. In a 96-well plate (Agilent Technologies) 20 μl of the reaction containing 5 μM of each protein in buffer PBS 1× and 5× SYPRO® Orange were heated from 25° C. to 95° C. at a rate of 1° C./min. The experimental result was processed as in the protocol previously described and the melting temperature was obtained using GraphPad Prism software (www.graphpad.com).

[8] = system: MCF-7 human breast adenocarcinoma cell line; assay: SRB cell proliferation (cytotoxicity) assay, MCF-7
Excerpt: as §1

[9] = system: HT-29 human colorectal adenocarcinoma; assay: SRB cell proliferation (cytotoxicity) assay, HT-29
Excerpt: as §1

[10] = system: SK-BR-3 human breast adenocarcinoma; assay: SRB cell proliferation (cytotoxicity) assay, SK-BR-3
Excerpt: as §1

[11] = system: NHF human foreskin skin fibroblasts; assay: in vitro
Excerpt: as §1

1-methyl derivative of LacNac
Kd (galectins): 70 µM

B1: AGCTGACACAGCAGGTTGGTGCCAACAAGAAAAGAAACCGTTACAGAAGACACTACAGAATAAGTGAAAAGCCGAGTCGAGCAATCTCGAAAT (nucleic acid)
DNA: AGCTGACACAGCAGGTTGGTGCCAACAAGAAAAGAAACCGTTACAGAAGACACTACAGAATAAGTGAAAAGCCGAGTCGAGCAATCTCGAAAT
modifications: chemistry not given here
Relative cell viability (%) of test items ([1]; 0.781 µM): 92.6%
Relative cell viability (%) of test items ([1]; 1.562 µM): 84.5%
Relative cell viability (%) of test items ([1]; 3.125 µM): 87.7%
Relative cell viability (%) of test items ([1]; 6.25 µM): 74.2%
Relative cell viability (%) of test items ([1]; 12.5 µM): 81.1%
Relative cell viability (%) of test items ([1]; 25 µM): 65.8%
Relative cell viability (%) of test items ([1]; 50 µM): 51.6%
Relative cell viability (%) of test items ([1]; 100 µM): −72.1%
TGI: Concentration for total inhibition of cell growth ([1]; A-375): 74.279 µM
IC50 ([1]; read-out: IC50: Concentration to inhibit 50% of cell growth, A-375): 47.9 µM
CC50 ([1]; read-out: LC50: Concentration for 50% cell death, A-375): 93.1 µM
Relative cell viability (%) of test items ([2]; 0.781 µM): 95.9%
Relative cell viability (%) of test items ([2]; 1.562 µM): 97.5%
Relative cell viability (%) of test items ([2]; 3.125 µM): 99.9%
Relative cell viability (%) of test items ([2]; 6.25 µM): 96.1%
Relative cell viability (%) of test items ([2]; 12.5 µM): 69.4%
Relative cell viability (%) of test items ([2]; 25 µM): 27.9%
Relative cell viability (%) of test items ([2]; 50 µM): 6.3%
Relative cell viability (%) of test items ([2]; 100 µM): −47.3%
TGI: Concentration for total inhibition of cell growth ([2]; HCT 116): 47.447 µM
IC50 ([2]; read-out: IC50: Concentration to inhibit 50% of cell growth, HCT 116): 20.2 µM
CC50 ([2]; read-out: LC50: Concentration for 50% cell death, HCT 116): > 100 µM
inhibitory effect on galectin-induced hemagglutination [3]: better effect
IC50 [4]: < 25 µM
Relative viability (%) of test items ([5]; 0.781 µM): 79.9%
Relative viability (%) of test items ([5]; 1.562 µM): 90.2%
Relative viability (%) of test items ([5]; 3.125 µM): 77.9%
Relative viability (%) of test items ([5]; 6.25 µM): 59.2%
Relative viability (%) of test items ([5]; 12.5 µM): 34.7%
Relative viability (%) of test items ([5]; 25 µM): 16.9%
Relative viability (%) of test items ([5]; 50 µM): −3.7%
Relative viability (%) of test items ([5]; 100 µM): −51.1%
TGI: Concentration for total inhibition of cell growth ([5]; OVCAR-3): 39.740 µM
IC50 ([5]; read-out: IC50: Concentration to inhibit 50% of cell growth, OVCAR-3): 9.46 µM
CC50 ([5]; read-out: LC50: Concentration for 50% cell death, OVCAR-3): > 100 µM
effect on the profile of antiproliferative activity in association with cisplatin (OVCAR-3 cell line): substantially improved
Relative viability (%) of test items ([6]; 0.781 µM): 94.8%
Relative viability (%) of test items ([6]; 1.562 µM): 106.3%
Relative viability (%) of test items ([6]; 3.125 µM): 104.4%
Relative viability (%) of test items ([6]; 6.25 µM): 105.3%
Relative viability (%) of test items ([6]; 12.5 µM): 92.2%
Relative viability (%) of test items ([6]; 25 µM): 72.4%
Relative viability (%) of test items ([6]; 50 µM): 32.5%
Relative viability (%) of test items ([6]; 100 µM): −39.4%
TGI: Concentration for total inhibition of cell growth ([6]; DU-145): 69.568 µM
IC50 ([6]; read-out: IC50: Concentration to inhibit 50% of cell growth, DU-145): 39.3 µM
CC50 ([6]; read-out: LC50: Concentration for 50% cell death, DU-145): > 100 µM
variation of denaturation temperature (Tm) of native hGal1 [7]: greater variation
Relative viability (%) of test items ([8]; 0.781 µM): 86.4%
Relative viability (%) of test items ([8]; 1.562 µM): 85.8%
Relative viability (%) of test items ([8]; 3.125 µM): 83.0%
Relative viability (%) of test items ([8]; 6.25 µM): 74.2%
Relative viability (%) of test items ([8]; 12.5 µM): 63.0%
Relative viability (%) of test items ([8]; 25 µM): 47.1%
Relative viability (%) of test items ([8]; 50 µM): 25.6%
Relative viability (%) of test items ([8]; 100 µM): −29.0%
TGI: Concentration for total inhibition of cell growth ([8]; MCF-7): 70.609 µM
IC50 ([8]; read-out: IC50: Concentration to inhibit 50% of cell growth, MCF-7): 24.3 µM
CC50 ([8]; read-out: LC50: Concentration for 50% cell death, MCF-7): > 100 µM
Relative cell viability (%) of test items ([9]; 0.781 µM): 90.8%
Relative cell viability (%) of test items ([9]; 1.562 µM): 93.7%
Relative cell viability (%) of test items ([9]; 3.125 µM): 103.0%
Relative cell viability (%) of test items ([9]; 6.25 µM): 94.2%
Relative cell viability (%) of test items ([9]; 12.5 µM): 78.3%
Relative cell viability (%) of test items ([9]; 25 µM): 32.7%
Relative cell viability (%) of test items ([9]; 50 µM): 15.7%
Relative cell viability (%) of test items ([9]; 100 µM): −71.9%
TGI: Concentration for total inhibition of cell growth ([9]; HT-29): 53.711 µM
IC50 ([9]; read-out: IC50: Concentration to inhibit 50% of cell growth, HT-29): 25.1 µM
CC50 ([9]; read-out: LC50: Concentration for 50% cell death, HT-29): 85.8 µM
Relative cell viability (%) of test items ([10]; 0.781 µM): 98.0%
Relative cell viability (%) of test items ([10]; 1.562 µM): 99.1%
Relative cell viability (%) of test items ([10]; 3.125 µM): 113.9%
Relative cell viability (%) of test items ([10]; 6.25 µM): 95.4%
Relative cell viability (%) of test items ([10]; 12.5 µM): 90.0%
Relative cell viability (%) of test items ([10]; 25 µM): 50.2%
Relative cell viability (%) of test items ([10]; 50 µM): −8.6%
Relative cell viability (%) of test items ([10]; 100 µM): −66.5%
TGI: Concentration for total inhibition of cell growth ([10]; SK-BR-3): 45.137 µM
IC50 ([10]; read-out: IC50: Concentration to inhibit 50% of cell growth, SK-BR-3): 26 µM
CC50 ([10]; read-out: LC50: Concentration for 50% cell death, SK-BR-3): 78.6 µM
Relative viability (%) of test items ([11]; 0.781 µM): 103.3%
Relative viability (%) of test items ([11]; 1.562 µM): 101.8%
Relative viability (%) of test items ([11]; 3.125 µM): 93.5%
Relative viability (%) of test items ([11]; 6.25 µM): 96.1%
Relative viability (%) of test items ([11]; 12.5 µM): 101.4%
Relative viability (%) of test items ([11]; 25 µM): 66.8%
Relative viability (%) of test items ([11]; 50 µM): 24.3%
Relative viability (%) of test items ([11]; 100 µM): −32.9%
TGI: Concentration for total inhibition of cell growth ([11]; NHF): 64.820 µM
IC50 ([11]; read-out: IC50: Concentration to inhibit 50% of cell growth, NHF): 35.7 µM
CC50 ([11]; read-out: LC50: Concentration for 50% cell death, NHF): > 100 µM
